# Results published in paper PMC10404669, “Vanillyl alcohol oxidase from Diplodia corticola: Residues Ala420 and Glu466 allow for efficient catalysis of syringyl derivatives” (The Journal of Biological Chemistry, 2023).
# Legend:
# [1] = substrate: C=CCc1ccc(O)c(OC)c1; test: steady-state kinetics, purified enzyme, xylenol orange H2O2 assay (KM, Hill fit); type: biochemical, Diplodia corticola; conditions: FAD (covalently bound) catalytic center; pH 7.5; 25.0 °C
# [2] = substrate: CCCCOCc1ccc(O)c(OC)c1; test: Michaelis-Menten kinetics, purified enzyme, xylenol orange H2O2 assay (KM); type: biochemical, Diplodia corticola; conditions: FAD (covalently bound) catalytic center; pH 7.5; 25.0 °C
# [3] = substrate: CCOCc1ccc(O)c(OC)c1; test: as above; type: biochemical, Diplodia corticola; conditions: FAD (covalently bound) catalytic center; Ala420 and Glu466 near the substrate (docking); pH 7.5; 25.0 °C
# [4] = substrate: COCc1ccc(O)c(OC)c1; test: as above; type: biochemical, Diplodia corticola; conditions: FAD (covalently bound) catalytic center; pH 7.5; 25.0 °C
# [5] = substrate: COc1cc(CO)ccc1O; test: as above; type: biochemical, Diplodia corticola; conditions: FAD (covalently bound) catalytic center; pH 7.5; 25.0 °C
# [6] = substrate: CCOCc1ccc(O)c(OC)c1; test: as above; type: biochemical, Penicillium simplicissimum; conditions: FAD (covalently bound) catalytic center; pH 7.5; 25.0 °C
# [7] = substrate: COCc1ccc(O)c(OC)c1; test: as above; type: biochemical, Penicillium simplicissimum; conditions: FAD (covalently bound) catalytic center; pH 7.5; 25.0 °C
# [8] = substrate: COc1cc(CO)ccc1O; test: as above; type: biochemical, Penicillium simplicissimum; conditions: FAD (covalently bound) catalytic center; pH 7.5; 25.0 °C
# purified protein = substrate: C=CCc1ccc(O)c(OC)c1; test: purified protein; type: biochemical, Penicillium simplicissimum; conditions: FAD (covalently bound) catalytic center; pH 7.5; 25.0 °C
Protein,Km [1],kcat [1],Km [2],kcat [2],Km [3],kcat [3],Km [4],kcat [4],Km [5],kcat [5],Km [6],kcat [6],Km [7],kcat [7],Km [8],kcat [8],Km (purified protein),kcat (purified protein)
DcVAO (vanillyl alcohol oxidase) (Diplodia corticola) (protein) MSLSRPLALPPGVSESTFHQFIERITKTTPDVTIVESKDQFPDGGYHEPPSSHDPFYVQDKDHFIASAFVCPRSVDEVQDIVRAAGDFVIPLWPTSLGRNLGYGGAAPRVRGSVVLNLGKHMNRILEVNVEGAYALVEPGVTFEALHNYLVEHNLRDKLWLDVPDLGGGSVLGNTLERGVGYTPYGDHFMMHSGMEVVLANGELLRTGMGALPAPKSETEGVTKLHEEPGNKCWQLFPYGFGPYNDGLFSQSNLGIVTKLGLGLMPNPGGYQSYLITIPGEEDLHKAVEIIRPLRLNNVIQNVPTLRYVLLDAGMMGHKSDYTSSTSPIDEATTDAIAKKLNLGRWNFYGALYGPPEIRTAMWKLIHAAFSAIPGARFFFPDDVADPRAVLHNRHNVLQGIPSYEELRWVDWVPNGAHVAFSPISRISGADAARQVDLAKRRCRDAGFDYMGTFTVGMREMHHIVEIVFDRTDAGQRKRAEALVRGLVDECAALGWGEYRTHLAFMDQIAGTYGWGGGALGRFNERVKEALDPKGILAPGKSGVWGSRFGELKGKL,60 ± 3 µM,10.3 ± 0.1 s⁻¹,258 ± 27 µM,2.1 ± 0.1 s⁻¹,198 ± 19 µM,4.7 ± 0.2 s⁻¹,263 ± 12 µM,1.9 ± 0.01 s⁻¹,297 ± 21 µM,4 ± 0.1 s⁻¹,–,–,–,–,–,–,–,–
PsVAO (vanillyl alcohol oxidase) (Penicillium simplicissimum) (protein) MSKTQEFRPLTLPPKLSLSDFNEFIQDIIRIVGSENVEVISSKDQIVDGSYMKPTHTHDPHHVMDQDYFLASAIVAPRNVADVQSIVGLANKFSFPLWPISIGRNSGYGGAAPRVSGSVVLDMGKNMNRVLEVNVEGAYCVVEPGVTYHDLHNYLEANNLRDKLWLDVPDLGGGSVLGNAVERGVGYTPYGDHWMMHSGMEVVLANGELLRTGMGALPDPKRPETMGLKPEDQPWSKIAHLFPYGFGPYIDGLFSQSNMGIVTKIGIWLMPNPRGYQSYLITLPKDGDLKQAVDIIRPLRLGMALQNVPTIRHILLDAAVLGDKRSYSSRTEPLSDEELDKIAKQLNLGRWNFYGALYGPEPIRRVLWETIKDAFSAIPGVKFYFPEDTPENSVLRVRDKTMQGIPTYDELKWIDWLPNGAHLFFSPIAKVSGEDAMMQYAVTKKRCQEAGLDFIGTFTVGMREMHHIVCIVFNKKDLIQKRKVQWLMRTLIDDCAANGWGEYRTHLAFMDQIMETYNWNNSSFLRFNEVLKNAVDPNGIIAPGKSGVWPSQYSHVTWKL,–,–,–,–,–,–,–,–,–,–,86 ± 3 µM,2.6 ± 0.02 s⁻¹,155 ± 5 µM,7.9 ± 0.1 s⁻¹,144 ± 10 µM,6.7 ± 0.1 s⁻¹,67 ± 2 µM,18.7 ± 0.5 s⁻¹
